From patent publication US20190144559A1 (Daiichi Sankyo, published 2019)

Tests used:
[1] = target: T1, Recombinant Human TROP-2 Fc chimera (human, UniProt P09758 27-274, limits assumed); experiment: SPR Biacore 3000, purified antibody captured on anti-human IgG (Fab), antigen as analyte, bivalent model
T1 construct: Used as the analyte in Biacore; also called antigen (Recombinant Human TROP-2 Fc chimera); not shown: Fc part and any linker of the chimera are not described
T1 sequence (looked up): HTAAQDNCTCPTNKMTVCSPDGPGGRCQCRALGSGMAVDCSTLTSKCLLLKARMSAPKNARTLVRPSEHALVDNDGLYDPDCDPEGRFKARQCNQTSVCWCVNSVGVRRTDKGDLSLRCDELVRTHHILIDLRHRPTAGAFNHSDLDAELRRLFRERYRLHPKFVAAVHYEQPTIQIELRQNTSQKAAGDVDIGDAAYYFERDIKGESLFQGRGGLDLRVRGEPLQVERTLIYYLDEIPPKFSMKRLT

[2] = target: T1, Recombinant Human TROP-2 Fc chimera; experiment: SPR Biacore 3000, antibody from culture supernatant captured on anti-human IgG (Fab), antigen as analyte, bivalent model

B1: hTINA1-H2L1 (antibody, human IgG1, kappa)
heavy: not shown
light: DIQMTQSPSSLSASVGDRVTITCKASQDVSTAVAWYQQKPGKAPKLLIYSASYRYTGVPSRFSGSGSGTDFTLTISSLQPEDFAVYYCQQHYITPLTFGQGTKLEIKRTVAAPSVFIFPPSDEQLKSGTASVVCLLNNFYPREAKVQWKVDNALQSGNSQESVTEQDSKDSTYSLSSTLTLSKADYEKHKVYACEVTHQGLSSPVTKSFNRGEC
notes: Human IgG1/kappa; also called hTINA1 antibody
- Kd [1]: 30 nM
- Kd [2]: 69 nM

B2: hTINA1-H1L1 (antibody, human IgG1, kappa, V domains shown)
VH: QVQLVQSGAEVKKPGASVKVSCKASGYTFTTAGMQWVRQAPGQGLEWMGWINTHSGVPKYAEDFKGRVTISADTSTSTAYLQLSSLKSEDTAVYYCARSGFGSSYWYFDVWGQGTLVTVSS
VL: DIQMTQSPSSLSASVGDRVTITCKASQDVSTAVAWYQQKPGKAPKLLIYSASYRYTGVPSRFSGSGSGTDFTLTISSLQPEDFAVYYCQQHYITPLTFGQGTKLEIKR
notes: Human IgG1/kappa; also called hTINA1 antibody; humanized TINA1
- Kd [1]: 27 nM
- Kd [2]: 63 nM

B3: hTINA1-H2L2 (antibody, human IgG1, kappa)
heavy: not shown
light: DIVMTQSPSSLSASVGDRVTITCKASQDVSTAVAWYQQKPGKAPKLLIYSASYRYTGVPSRFSGSGSGTDFTLTISSLQPEDFAVYYCQQHYITPLTFGQGTKLEIKRTVAAPSVFIFPPSDEQLKSGTASVVCLLNNFYPREAKVQWKVDNALQSGNSQESVTEQDSKDSTYSLSSTLTLSKADYEKHKVYACEVTHQGLSSPVTKSFNRGEC
notes: as for B1
- Kd [1]: 27 nM
- Kd [2]: 71 nM

B4: hTINA1-H3L3 (antibody, human IgG1, kappa, V domains shown)
VH: QIQLVQSGAEVKKPGESVKVSCKASGYTFTTAGMQWVQQMPGKGLEWMGWINTHSGVPKYAEDFKGRVTFSLDTSTSTAYLQLSSLKSEDTAVYYCARSGFGSSYWYFDVWGQGTLVTVSS
VL: DIVMTQSPSSLSASVGDRVTITCKASQDVSTAVAWYQQKPGKQPKLLIYSASYRYTGVPSRFSGSGSGTDFTLTISSLQPEDFAVYYCQQHYITPLTFGQGTKLEIKR
notes: as for B1
- Kd [1]: 15 nM
- Kd [2]: 58 nM

B5: hRS7 antibody (antibody, V domains shown)
VH: QVQLQQSGSELKKPGASVKVSCKASGYTFTNYGMNWVKQAPGQGLKWMGWINTYTGEPTYTDDFKGRFAFSLDTSVSTAYLQISSLKADDTAVYFCARGGFGSSYWYFDVWGQGSLVTVSS
VL: DIQLTQSPSSLSASVGDRVSITCKASQDVSIAVAWYQQKPGKAPKLLIYSASYRYTGVPDRFSGSGSGTDFTLTISSLQPEDFAVYYCQQHYITPLTFGAGTKVEIKR
- Kd [1]: 0.3 nM

B6: cTINA1 antibody (antibody, human IgG1, V domains shown)
VH: QIQLVQSGPELKKPGETVRISCKASGYTFTTAGMQWVQKMPGKGLKWIGWINTHSGVPKYAEDFKGRFAFSLETSASTAYLQISNLKNEDTTTYFCARSGFGSSYWYFDVWGAGTAVTVSS
VL: DIVMTQSHKFMSTSVGDRVSITCKASQDVSTAVAWYQQKPGQSPKLLIYSASYRYTGVPDRFTGSGSGTAFTFTISSVQAEDLAVYYCQQHYITPLTFGAGTKLELKR
notes: Mouse TINA1 variable regions on human IgG1/kappa constant regions; also called human chimeric TINA1 antibody; chimeric TINA1
- Kd [2]: 56 nM
